pKd: −log10 of the molar value. Where two headings read alike, the source gives them in different places. Peptide text beside a SMILES is read from it.

For assay [1], the target named is HLA-DRB1*01∶01 (recombinant HLA-DR alpha chain with FOS zipper paired with HLA-DRB1*01∶01 beta chain with JUN zipper and BSP). As to the kind of experiment: AlphaScreen or HTRF.
Assay [2] addresses HLA-DRB1*15∶01 (recombinant HLA-DR alpha chain with FOS zipper paired with HLA-DRB1*15∶01 beta chain with JUN zipper and BSP). As to the kind of experiment: AlphaScreen or HTRF.
The target in assay [3] is HLA-DRB5*01∶01 (recombinant HLA-DR alpha chain with FOS zipper paired with HLA-DRB5*01∶01 beta chain with JUN zipper and BSP). As to the kind of experiment: AlphaScreen or HTRF.
The target of a further assay is T1, HLA-DRB1*01∶01 (Homo sapiens, UniProt P01903+P01911, A100R/D57E/F55L/F60I/F76Y/I96L/L162R/M171V/P40L/Q125E/R42F/V115G/Y59C).
T1 construct: expression of transmembrane-truncated versions of isolated α and in vivo biotinylated β chain molecules in E. coli; made in house
The assay can be described thus: biochemical. Type of assay: binding. Conditions: C-terminally H6-tagged peptide, read-out: KD (nM) HLA-DRB1*01∶01 + tag.

A further assay has as its target T2, HLA-DRB1*15∶01 (Homo sapiens, UniProt P01903+P01911).
T2 construct: expression of transmembrane-truncated versions of isolated α and in vivo biotinylated β chain molecules in E. coli; made in house
As to the kind of experiment: biochemical. Type of assay: binding. Conditions: C-terminally H6-tagged peptide, read-out: KD (nM) HLA-DRB1*15∶01 + tag.

The next assay concerns the target T3, HLA-DRB5*01∶01 (Homo sapiens, UniProt P01903+Q30154).
T3 construct: expression of transmembrane-truncated versions of isolated α and in vivo biotinylated β chain molecules in E. coli; made in house
The assay can be described thus: biochemical. The format is binding.

Where [4] appears, read: C-terminally H6-tagged peptide, […], read-out: KD (nM) HLA-DRB5*01∶01 + tag.

On to Influenza A peptide HA_(307–318(H6)), for which the pKd in assay [1] was 7.72; in assay [2], 6.46; in assay [3], 7.77.
On to Influenza A peptide HA_(307–318), for which the figures for the pKd in assay [1], in assay [2] and in assay [3] were 8.05, 7.60 and 8.40, respectively.
Take “cytomegalovirus (CMV) peptide IE1_(211–225)”: in assay [3], the pKd is 8.10.
“Hepatitis C (Hep C) peptide NS3_(218–235)”: the pKd in assay [1] is 8.52; in assay [2] it was 8.70.
Consider `CC(C)C[C@H](NC(=O)[C@@H](NC(=O)[C@H](Cc1ccccc1)NC(=O)[C@@H](NC(=O)[C@H](Cc1ccccc1)NC(=O)CNC(=O)[C@@H](N)CC(C)C)C(C)C)[C@@H](C)O)C(=O)N[C@H](C(=O)N[C@H](C(=O)N1CCC[C@H]1C(=O)N[C@@H](CO)C(=O)N[C@@H](CCC(=O)O)C(=O)N[C@@H](CCCNC(=N)N)C(=O)NCC(=O)N[C@@H](Cc1c[nH]cn1)C(=O)N[C@@H](Cc1c[nH]cn1)C(=O)N[C@@H](Cc1c[nH]cn1)C(=O)N[C@@H](Cc1c[nH]cn1)C(=O)N[C@@H](Cc1c[nH]cn1)C(=O)N[C@@H](Cc1c[nH]cn1)C(=O)O)C(C)C)[C@@H](C)O` [Influenza A MP60–72 + tag] (H-LGFVFTLTVPSERGHHHHHH-OH), for which the Kd on HLA-DRB1*01∶01 was found to be 40 nM; on HLA-DRB1*15∶01, 282 nM; on HLA-DRB5*01∶01 (setting [4]), 13 nM.
For Influenza A peptide MP_(60–73), the figures for the pKd in assay [1], in assay [2] and in assay [3] were 7.77, 6.57 and 8.15, respectively.
For `CC(C)C[C@H](NC(=O)[C@H](CCCCN)NC(=O)[C@H](CC(C)C)NC(=O)[C@@H](NC(=O)[C@H](CC(N)=O)NC(=O)[C@H](CCC(N)=O)NC(=O)[C@H](CCCCN)NC(=O)[C@@H](NC(=O)[C@H](Cc1ccc(O)cc1)NC(=O)[C@H](CCCCN)NC(=O)[C@@H](N)Cc1ccc(O)cc1)C(C)C)[C@@H](C)O)C(=O)N[C@@H](C)C(=O)N[C@H](C(=O)N[C@@H](Cc1c[nH]cn1)C(=O)N[C@@H](Cc1c[nH]cn1)C(=O)N[C@@H](Cc1c[nH]cn1)C(=O)N[C@@H](Cc1c[nH]cn1)C(=O)N[C@@H](Cc1c[nH]cn1)C(=O)N[C@@H](Cc1c[nH]cn1)C(=O)O)[C@@H](C)O` [Influenza A HA306–318 + tag] (H-YKYVKQNTLKLATHHHHHH-OH), the Kd turned out to be 345 nM at HLA-DRB1*15∶01 and 17 nM at HLA-DRB5*01∶01 (setting [4]).
For Influenza A peptide MP_(60–73(H6)), the pKd in assay [1] was 7.40; in assay [2] it was 6.55; in assay [3], 7.89.
For “cytomegalovirus (CMV) peptide IE1_(211–225(H6))”, the pKd was 7.38 in assay [1], 6.90 in assay [2] and 8.10 in assay [3].
As to `CC(C)C[C@H](NC(=O)[C@@H](NC(=O)[C@H](Cc1ccccc1)NC(=O)[C@@H](NC(=O)[C@H](Cc1ccccc1)NC(=O)CNC(=O)[C@@H](N)CC(C)C)C(C)C)[C@@H](C)O)C(=O)N[C@H](C(=O)N[C@H](C(=O)N1CCC[C@H]1C(=O)N[C@@H](CO)C(=O)N[C@@H](CCC(=O)O)C(=O)N[C@@H](CCCNC(=N)N)C(=O)NCC(=O)O)C(C)C)[C@@H](C)O` [Influenza A MP60–72, reference compound], on HLA-DRB5*01∶01 (read-out: KD (nM) HLA-DRB5*01∶01 − tag), the Kd worked out at 7 nM.
Regarding “Hepatitis C peptide Hep C-NS3_(218–235(H6))”, the values for the pKd in assay [1], in assay [2] and in assay [3] were 8.30, 8.70 and 7.43, respectively.

The values above are taken from PMC3759463 (PLoS ONE, 2013).
